This is an account of results in publication PMC10872586 (Cell reports, 2023).

For one experiment, the target named is mini-HA #4900 protein (Designed influenza A H1 HA stem #4900 …, stabilised, biotin at the BirA biotinylation site, conjugated to streptavidin-PE (for the yeast display assays only)). Briefly: BLI. To be noted: both partners purified.
For experiment [1], the target named is HA protein from H1N1 A/Solomon Islands/3/2006 (Influenza A virus (A/Solomon …, UniProt A7Y8I1, strain)). Description: BLI. To be noted: both partners purified.

Numbering of substitutions follows the chain as printed.

B1: CR9114 Fab (positive control) (Fab, V domains shown)
VH: QVQLVQSGAEVKKPGSSVKVSCKSSGGTSNNYAISWVRQAPGQGLDWMGGISPIFGSTAYAQKFQGRVTISADIFSNTAYMELNSLTSEDTAVYFCARHGNYYYYSGMDVWGQGTTVTVSS
VL: QSALTQPPAVSGTPGQRVTISCSGSDSNIGRRSVNWYQQFPGTAPKLLIYSNDQRPSVVPDRFSGSKSGTSASLAISGLQSEDEAEYYCAAWDDSLKGAVFGGGTQLTVL
notes: source: Expi293F, co-transfected, purified (CaptureSelect CH1-XL)
For the molecule B1, binding in the experiment with mini-HA #4900 protein was characterised by a dissociation constant (Kd) of 0.69 nM.

B2: CR9114 gHC Fab VL W91R (Fab, V domains shown)
VH: QVQLVQSGAEVKKPGSSVKVSCKASGGTFSSYAISWVRQAPGQGLEWMGGIIPIFGTANYAQKFQGRVTITADKSTSTAYMELSSLRSEDTAVYYCARHGNYYYYYGMDVWGQGTTVTVSS
VL: B1 VL with Q1S, S2Y, A3V, W92R
notes: Kabat numbering; source: Expi293F, co-transfected, purified (CaptureSelect CH1-XL)
Consider B2, for which, in experiment [1], the binding result is reported as “no binding (tested: 300 nM)”.

B3: CR9114 gHC Fab VL W91A (Fab, V domains shown)
VH: B2 VH
VL: B1 VL with Q1S, S2Y, A3V, W92A
notes: as for B2
Regarding B3, in experiment [1], the binding result is reported as “no binding (tested: 300 nM)”.

B4: CR9114 with germline heavy chain, Fab (Fab, V domains shown)
VH: B2 VH
VL: B1 VL with Q1S, S2Y, A3V
notes: also called CR9114 gHC; WT; source: Expi293F, co-transfected, purified (CaptureSelect CH1-XL)
For the molecule B4, the affinity in experiment [1], expressed as Kd, was 2600 nM.

B5: CR9114 gHC Fab VL A96Y (Fab, V domains shown)
VH: B2 VH
VL: B1 VL with Q1S, S2Y, A3V, A99Y
notes: as for B2
As to B5, the binding result in experiment [1] is “no binding (tested: 300 nM)”.

B6: CR9114 gHC Fab VL W91T (Fab, V domains shown)
VH: B2 VH
VL: B1 VL with Q1S, S2Y, A3V, W92T
notes: as for B2
Turning to B6, in experiment [1], the binding result was “no binding (tested: 300 nM)”.

B7: CR9114 gHC Fab VL A96F (Fab, V domains shown)
VH: B2 VH
VL: B1 VL with Q1S, S2Y, A3V, A99F
notes: as for B2
In the case of B7, the binding result in experiment [1] is on record as “no binding (tested: 300 nM)”.

B8: CR9114 gHC Fab VL A96W (Fab, V domains shown)
VH: B2 VH
VL: B1 VL with Q1S, S2Y, A3V, A99W
notes: as for B2
Take B8: the binding result in experiment [1] is listed as “no binding (tested: 300 nM)”.
